Laboratory results as given in article PMC10028610, “A Cold-Active Flavin-Dependent Monooxygenase from Janthinobacterium svalbardensis Unlocks Applications of Baeyer–Villiger Monooxygenases at Low Temperature” (ACS Catalysis, 2023).

Key:
[1] = biological target: type II flavin-containing monooxygenase from Janthinobacterium svalbardensis (Janthinobacterium svalbardensis PAMC27463); assay: SEC; size exclusion chromatography of purified JsFMO, with a calibration curve (Figure S2)
[2] = biological target: type II flavin-containing monooxygenase from Janthinobacterium svalbardensis (Janthinobacterium svalbardensis PAMC27463); assay: crystal structure; sitting-drop vapor diffusion in the cold room (4-8 °C); 16 mg/mL JsFMO, glycerol 20%, PEG 8000 13%, 100 mM Bis-Tris pH 6.5; four protomers forming two dimers in the asymmetric unit; FAD bound, no NADP+
purified protein [3] = substrate: NC(=O)C1=CN([C@@H]2O[C@H](COP(=O)(O)OP(=O)(O)OC[C@H]3O[C@@H](n4cnc5c(N)ncnc54)[C@H](O)[C@@H]3O)[C@@H](O)[C@H]2O)C=CC1; assay: purified protein; type: biochemical, Janthinobacterium svalbardense; details: 100 mM Tris-HCl pH 7.5, 500 mM NaCl, 10% glycerol, 1 mM DTT, 5 μM FAD, room temperature, co-substrate concentration not given
purified protein [4] = substrate: NC(=O)C1=CN([C@@H]2O[C@H](COP(=O)(O)OP(=O)(O)OC[C@H]3O[C@@H](n4cnc5c(N)ncnc54)[C@H](OP(=O)(O)O)[C@@H]3O)[C@@H](O)[C@H]2O)C=CC1; assay: purified protein; type: biochemical, Janthinobacterium svalbardense; details: 100 mM Tris-HCl pH 7.5, 500 mM NaCl, 10% glycerol, 1 mM DTT, 5 μM FAD, room temperature, co-substrate concentration not given
purified protein [5] = substrate: O=C1CC2C=CCC12; assay: purified protein; type: biochemical, Janthinobacterium svalbardense; details: 0.25 mM NADPH, 0.25-20 mM 1a, 100 mM Tris-HCl pH 7.5, 500 mM NaCl, 10% glycerol, 1 mM DTT, 5 μM FAD, room temperature

Row | stoichiometry N [1] | stoichiometry N [2] | Molecule | Km (purified protein [3]) [µM] | kcat (purified protein [3]) [s^–1] | Km (purified protein [4]) [µM] | kcat (purified protein [4]) [s^–1] | Km (purified protein [5]) [µM] | kcat (purified protein [5]) [s^–1]
1 | 2 | 2 | type II flavin-containing monooxygenase from Janthinobacterium svalbardensis (enzyme) | – | – | – | – | – | –
2 | – | – | JsFMO (Janthinobacterium svalbardense) (protein, full-length, codon-optimized in pET-28a(+)-TEV, E. coli ArcticExpress (DE3), C-terminal His-tag (stated for crystal structure); homodimer; SnoaL-like N-terminal domain, C-terminal helix residues 567-586) MQTDSNPHDLAVAGILEQLEGCLRASDSTGAAQLFEPDGYWRDLVLFTWNLKTLEGREQIAAMLAAQLGAVQPVSIRIADGEHAVEAGGVLQSWITVETNVARGVGFIRIRDGKIWTLLTTMSELKGFEEAKGGRRPMGAEHGARTDRSSWLEQREQEAKELGYARQPYCVIIGGGQGGIALGARLRQLNVPTIIIEKNARPGDSWRKRYKSLCLHDPVWYDHMPYIPFPDNWPVFTPKDKVGDWLEMYTKVMELNYWGSTSCESASFDAASGEWTVQVLRDGQPVTLKPKQLVLATGMSGKANMPKFKGMDVFQGEQQHSSQHPGPDAYAGKKVVVVGANNSAHDICAALWEAGVDVTMVQRSSTHIVKSDSLMDLALGDLYSERALAAGMTTNKADLTFASIPYKILANFQKPVFKAIRERDADFYARLEERGFMLDFGDDDSGLFMKYLRRGSGYYIDVGASELVAEGKIKLKSGVGVQELKSHSIVLSDGTELPADLVVYATGYGSMNGWAADLISPEVANKVGKVWGLGSATTKDPGPWEGEQRNMWKPTQQQALWFHGGNLHQSRHYSQYLSLQLKARMEGLNTPVYGQQEVHHLS | 78.5 ± 7.5 | 0.23 ± 0.1 | 14.4 ± 2.5 | 0.21 ± 0.1 | 1050 ± 230 | 0.29 ± 0.01
